In paper PMC8948244, “Pumilio protects Xbp1 mRNA from regulated Ire1-dependent decay”:

What was measured:
[1] = biological target: T1, hPUM1-HD (Pum-HD domain of human PUM1) (Homo sapiens, UniProt Q14671 828-1168); assay: EMSA; 100-300 nM protein, 10 nM probe; 10 mM Hepes/KOH pH 7.4, 50 mM KCl, 3 mM MgCl2, 1 mM EDTA, 0.1 mg/ml yeast tRNA, 2 mM DTT, 0.01% Tween-20, 0.2 U RNasin, 5% glycerol, 20 µl; 1 h on ice; 6% native gel, 0.5x TBE, room temperature; conditions: protein: recombinant; label: 3' biotin-TEG; single strand
[2] = biological target: T1, hPUM1-HD (Pum-HD domain of human PUM1); assay: competition; EMSA; 5x, 10x, 50x excess (source data label: 25x) over biotin-labeled WT probe; no effect; 10 mM Hepes/KOH pH 7.4, 50 mM KCl, 3 mM MgCl2, 1 mM EDTA, 0.1 mg/ml yeast tRNA, 2 mM DTT, 0.01% Tween-20, 0.2 U RNasin, 5% glycerol, 20 µl; 1 h on ice; 6% native gel, 0.5x TBE, room temperature; conditions: protein: recombinant; single strand
[3] = biological target: T1, hPUM1-HD (Pum-HD domain of human PUM1); assay: competition; EMSA; 5x, 10x, 50x excess over biotin-labeled WT probe; shifted band disappeared; 10 mM Hepes/KOH pH 7.4, 50 mM KCl, 3 mM MgCl2, 1 mM EDTA, 0.1 mg/ml yeast tRNA, 2 mM DTT, 0.01% Tween-20, 0.2 U RNasin, 5% glycerol, 20 µl; 1 h on ice; 6% native gel, 0.5x TBE, room temperature; conditions: protein: recombinant; single strand

T1 sequence (Q14671 828-1168): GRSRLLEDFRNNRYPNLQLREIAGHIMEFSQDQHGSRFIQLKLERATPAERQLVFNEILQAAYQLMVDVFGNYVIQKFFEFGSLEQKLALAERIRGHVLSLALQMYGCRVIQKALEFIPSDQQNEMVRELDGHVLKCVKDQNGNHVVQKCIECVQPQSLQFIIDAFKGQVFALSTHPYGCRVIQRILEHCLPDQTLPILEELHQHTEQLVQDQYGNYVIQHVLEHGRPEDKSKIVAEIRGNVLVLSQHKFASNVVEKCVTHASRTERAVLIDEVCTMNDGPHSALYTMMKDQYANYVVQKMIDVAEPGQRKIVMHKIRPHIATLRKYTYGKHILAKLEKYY

**Q.** Does GAUAGGCUGUACAUAAAUUCAUAAUCG (ssRNA) [pum1site-wt-3BioTEG (Xbp1 3'UTR PRE1)] bind [1]?
**A.** Result: binds

**Q.** Does GAUAGGCACAACAUAAAUUCAUAAUCG (ssRNA) [pum1site-mut (unlabeled competitor, UGUA to ACAA)] bind [2]?
**A.** Result: no binding

**Q.** Does GAUAGGCUGUACAUAAAUUCAUAAUCG (ssRNA) [pum1site-wt (unlabeled competitor)] bind [3]?
**A.** Result: binds
